2 substances from PMC8927971 can be followed below.

This data set has as its system CIZ1 N571 (GST-N571) (Mus musculus). Description: EMSA. The conditions noted are these: 0.3 nM RNA; 10 mM Tris-HCl pH 7.5, 30 mM NaCl, 2.5 mM MgCl2, 0.2 mM DTT, 0.1% IGEPAL CA-630, 0.1 mg/ml yeast tRNA, 0.4 U RNaseOUT, 1% glycerol; 30 C 20 min; 0.7% agarose ….

In turn, Xist repeat E proximal came in with a K half of 100 nM. Turning to Xist repeat A, the K half stood at 200 nM.
